Laboratory results from patent publication US11795460B2, “Compositions and methods for TTR gene editing and treating ATTR amyloidosis” (Intellia Therapeutics, Inc., priority 2017, dated 2023).
Strand notation (5' to 3'): a small letter for the sugar, then the base; units joined by * are phosphorothioate-linked, units joined directly phosphodiester-linked; [ ] holds rarer units or linkages, { } end groups; capitals alone tell only the bases. m = 2'-O-methyl; r = 2'-OH (RNA)

B1: G000487: TTR sgRNA modified sequence, Human, SEQ ID No. 94; guide sequence of CR003357 (nucleic acid)
guide: mU*mU*mC*rUrUrUrGrGrCrArArCrUrUrArCrCrCrArGrGrUrUrUrUrArGrAmGmCmUmAmGmAmAmAmUmAmGmCrArArGrUrUrArArArArUrArArGrGrCrUrArGrUrCrCrGrUrUrArUrCrAmAmCmUmUmGmAmAmAmAmAmGmUmGmGmCmAmCmCmGmAmGmUmCmGmGmUmGmCmU*mU*mU*mU
B2: G000491: TTR sgRNA modified sequence, Human, SEQ ID No. 98; guide sequence of CR003338 (nucleic acid)
guide: mA*mU*mA*rCrCrArGrUrCrCrArGrCrArArGrGrCrArGrGrUrUrUrUrArGrAmGmCmUmAmGmAmAmAmUmAmGmCrArArGrUrUrArArArArUrArArGrGrCrUrArGrUrCrCrGrUrUrArUrCrAmAmCmUmUmGmAmAmAmAmAmGmUmGmGmCmAmCmCmGmAmGmUmCmGmGmUmGmCmU*mU*mU*mU
B3: G000486: TTR sgRNA modified sequence, Human, SEQ ID No. 93; guide sequence of CR003339 (nucleic acid)
guide: mA*mC*mA*rCrArArArUrArCrCrArGrUrCrCrArGrCrArGrUrUrUrUrArGrAmGmCmUmAmGmAmAmAmUmAmGmCrArArGrUrUrArArArArUrArArGrGrCrUrArGrUrCrCrGrUrUrArUrCrAmAmCmUmUmGmAmAmAmAmAmGmUmGmGmCmAmCmCmGmAmGmUmCmGmGmUmGmCmU*mU*mU*mU
B4: G000483: TTR sgRNA modified sequence, Human, SEQ ID No. 90; guide sequence of CR005298 (nucleic acid)
guide: mU*mC*mC*rArCrUrCrArUrUrCrUrUrGrGrCrArGrGrArGrUrUrUrUrArGrAmGmCmUmAmGmAmAmAmUmAmGmCrArArGrUrUrArArArArUrArArGrGrCrUrArGrUrCrCrGrUrUrArUrCrAmAmCmUmUmGmAmAmAmAmAmGmUmGmGmCmAmCmCmGmAmGmUmCmGmGmUmGmCmU*mU*mU*mU
B5: G000485: TTR sgRNA modified sequence, Human, SEQ ID No. 92; guide sequence of CR003336 (nucleic acid)
guide: mC*mC*mU*rCrCrUrCrUrGrCrCrUrUrGrCrUrGrGrArCrGrUrUrUrUrArGrAmGmCmUmAmGmAmAmAmUmAmGmCrArArGrUrUrArArArArUrArArGrGrCrUrArGrUrCrCrGrUrUrArUrCrAmAmCmUmUmGmAmAmAmAmAmGmUmGmGmCmAmCmCmGmAmGmUmCmGmGmUmGmCmU*mU*mU*mU
B6: G000490: TTR sgRNA modified sequence, Human, SEQ ID No. 97; guide sequence of CR003366 (nucleic acid)
guide: mA*mA*mA*rUrArGrArCrArCrCrArArArUrCrUrUrArCrGrUrUrUrUrArGrAmGmCmUmAmGmAmAmAmUmAmGmCrArArGrUrUrArArArArUrArArGrGrCrUrArGrUrCrCrGrUrUrArUrCrAmAmCmUmUmGmAmAmAmAmAmGmUmGmGmCmAmCmCmGmAmGmUmCmGmGmUmGmCmU*mU*mU*mU
B7: G000482: TTR sgRNA modified sequence, Human, SEQ ID No. 89; guide sequence of CR003365 (nucleic acid)
guide: mU*mG*mU*rArGrArArGrGrGrArUrArUrArCrArArArGrGrUrUrUrUrArGrAmGmCmUmAmGmAmAmAmUmAmGmCrArArGrUrUrArArArArUrArArGrGrCrUrArGrUrCrCrGrUrUrArUrCrAmAmCmUmUmGmAmAmAmAmAmGmUmGmGmCmAmCmCmGmAmGmUmCmGmGmUmGmCmU*mU*mU*mU
B8: G000481: TTR sgRNA modified sequence, Human, SEQ ID No. 88; guide sequence of CR003345 (nucleic acid)
guide: mU*mC*mU*rArGrArArCrUrUrUrGrArCrCrArUrCrArGrGrUrUrUrUrArGrAmGmCmUmAmGmAmAmAmUmAmGmCrArArGrUrUrArArArArUrArArGrGrCrUrArGrUrCrCrGrUrUrArUrCrAmAmCmUmUmGmAmAmAmAmAmGmUmGmGmCmAmCmCmGmAmGmUmCmGmGmUmGmCmU*mU*mU*mU
B9: G000484: TTR sgRNA modified sequence, Human, SEQ ID No. 91; guide sequence of CR003367 (nucleic acid)
guide: mA*mG*mA*rCrArCrCrArArArUrCrUrUrArCrUrGrGrArGrUrUrUrUrArGrAmGmCmUmAmGmAmAmAmUmAmGmCrArArGrUrUrArArArArUrArArGrGrCrUrArGrUrCrCrGrUrUrArUrCrAmAmCmUmUmGmAmAmAmAmAmGmUmGmGmCmAmCmCmGmAmGmUmCmGmGmUmGmCmU*mU*mU*mU

Assays:
Type in all cases: cell-based
TTR [1] = test: TTR editing in primary human hepatocytes treated with LNP formulated Spy Cas9 mRNA (SEQ ID NO: 2) and sgRNAs (Table 16); conditions: LNP formulated Spy Cas9 mRNA (SEQ ID NO: 2) and sgRNA, 72 hours
Method: (§1) Primary liver hepatocytes. Primary human liver hepatocytes (PHH) and primary cynomolgus liver hepatocytes (PCH) (Gibco) were cultured per the manufacturer's protocol (Invitrogen, protocol 11.28.2012). In brief, the cells were thawed and resuspended in hepatocyte thawing medium with supplements (Gibco, Cat. CM7000) followed by centrifugation at 100 g for 10 minutes for human and 80 g for 4 minutes for cyno. The supernatant was discarded and the pelleted cells resuspended in hepatocyte plating medium plus supplement pack (Invitrogen, Cat. A1217601 and CM3000). Cells were counted and plated on Bio-coat collagen I coated 96-well plates (ThermoFisher, Cat. 877272) at a density of 33,000 cells/well for human or 60,000 cells/well for cyno (or 65,000 cells/well when assaying effects on TTR protein, described further below). Plated cells were allowed to settle and adhere for 6 or 24 hours in a tissue culture incubator at 37° C. and 5% CO2 atmosphere. After incubation cells were checked for monolayer formation and media was replaced with hepatocyte culture medium with serum-free supplement pack (Invitrogen, Cat. A1217601 and CM4000).
In general, the lipid nanoparticle components were dissolved in 100% ethanol with the lipid component of various molar ratios. The RNA cargos were dissolved in 25 mM citrate, 100 mM NaCl, pH 5.0, resulting in a concentration of RNA cargo of approximately 0.45 mg/mL. The LNPs were formulated with a lipid amine to RNA phosphate (N:P) molar ratio of about 4.5 or about 6, with the ratio of mRNA to gRNA at 1:1 by weight.
The LNPs were formed by microfluidic mixing of the lipid and RNA solutions using a Precision Nanosystems NanoAssemblr™ Benchtop Instrument, according to the manufacturer's protocol. A 2:1 ratio of aqueous to organic solvent was maintained during mixing using differential flow rates. After mixing, the LNPs were collected, diluted in water (approximately 1:1 v/v), held for 1 hour at room temperature, and further diluted with water (approximately 1:1 v/v) before final buffer exchange. The final buffer exchange into 50 mM Tris, 45 mM NaCl, 5% (w/v) sucrose, pH 7.5 (TSS) was completed with PD-10 desalting columns (GE). If required, formulations were concentrated by centrifugation with Amicon 100 kDa centrifugal filters (Millipore). The resulting mixture was then filtered using a 0.2 μm sterile filter. The final LNP was stored at −80° C. until further use.
(§2) To quantitatively determine the efficiency of editing at the target location in the genome, sequencing was utilized to identify the presence of insertions and deletions introduced by gene editing.
(§3) Primers were designed around the target site within the gene of interest (e.g. TTR), and the genomic area of interest was amplified.
(§4) Additional PCR was performed per the manufacturer's protocols (Illumina) to add chemistry for sequencing. The amplicons were sequenced on an Illumina MiSeq instrument. The reads were aligned to a reference genome (e.g., the human reference genome (hg38), the cynomologus reference genome (mf5), the rat reference genome (rn6), or the mouse reference genome (mm10)) after eliminating those having low quality scores. The resulting files containing the reads were mapped to the reference genome (BAM files), where reads that overlapped the target region of interest were selected and the number of wild type reads versus the number of reads which contain an insertion, substitution, or deletion was calculated.
(§5) The editing percentage (e.g., the “editing efficiency” or “percent editing” or “indel frequency”) is defined as the total number of sequence reads with insertions/deletions (“indels”) or substitutions over the total number of sequence reads, including wild type.
Lipid nanoparticle formulations of modified sgRNAs targeting human TTR and the cyno matched sgRNA sequences were tested on primary human hepatocytes and primary cyno hepatocytes in a dose response curve. Primary human and cyno hepatocytes were plated as described in Example 1. […]

TTR [2] = test: TTR editing in primary human hepatocytes transfected with Spy Cas9 protein and sgRNAs (Table 12); conditions: primary human hepatocytes transfected with Spy Cas9 protein (RNP) and sgRNAs
Method: as §1
Ribonucleotide formation was performed prior to electroporation or transfection of Spy Cas9 protein loaded with guide RNAs (RNPs) onto cells. For dual guide (dgRNAs), individual crRNA and trRNA was pre-annealed by mixing equivalent amounts of reagent and incubating at 95° C. for 2 min and cooling to room temperature. Single guide (sgRNAs) were boiled at 95° C. for 2 min and cooling to room temperature. The boiled dgRNA or sgRNA was incubated with Spy Cas9 protein in Optimem for 10 minutes at room temperature to form a ribonucleoprotein (RNP) complex.
For RNP lipoplex transfections, cells were transfected with Lipofectamine RNAiMAX (ThermoFisher, Cat. 13778150) per the manufacturer's protocol. Cells were transfected with an RNP containing Spy Cas9 (10 nM), individual guide (10 nM), tracer RNA (10 nM), Lipofectamine RNAiMAX (1.0 μL/well) and OptiMem. RNP formation was performed as described above.
Transfected cells were harvested post-transfection at 24, 48, or 72 hours. The genomic DNA was extracted from each well of a 96-well plate using 50 μL/well BuccalAmp DNA Extraction solution (Epicentre, Cat. QE09050) per manufacturer's protocol. All DNA samples were subjected to PCR and subsequent NGS analyses, as described herein.
as §2, §3, §4, §5
Guides in modified sgRNA format targeting human and/or cyno TTR were delivered to primary human hepatocytes and primary cyno hepatocytes as described in Example 1. […]

[3] = system: off-target integration sites; test: Off-target oligo insertion based assay in primary human hepatocytes (Table 30); conditions: TTR sgRNAs in PHH, 100 ng Cas9 mRNA, 25 nM sgRNA, 12.5 nM donor oligo
Method: Off-target analysis of sgRNAs targeting TTR was performed in primary human hepatocytes (PHH) as described in Example 5, with the following modifications. PHH were plated at a density of 33,000 cells per well on collagen-coated 96-well plates as described in Example 1. Twenty-four hours post plating, cells were washed with media and transfected using Lipofectamine RNAiMAX (ThermoFisher, Cat. 13778150) as described in Example 1. Cells were transfected with a lipoplex containing 100 ng Cas9 mRNA, immediately followed by the addition of another lipoplex containing 25 nM of the sgRNA and 12.5 nM of the donor oligo (0.3 μL/well). Cells were lysed 48 hours post-transfection and gDNA was extracted and analyzed as further described in Example 5. The data is graphically represented in FIG. 20.
Fewer sites were detected in PHH for every guide tested as compared to the HekCas9 cell line, with no unique sites detected in PHH alone.

Row | Molecule | 12.5 ng mRNA, 3.9 nM sgRNA Avg % Edit (TTR [1]) [%] | Avg % Deletion (TTR [2]) [%] | Avg % Edit (TTR [2]) [%] | Avg % Insert (TTR [2]) [%] | # Sites in PHH [3]
1 | B1 | 17.37 | 2.07 | 67.30 | 65.27 | 0
2 | B2 | 31.60 | 4.33 | 74.30 | 70.27 | 7
3 | B3 | 61.33 | 59.93 | 69.73 | 9.83 | 0
4 | B4 | 7.37 | 28.50 | 47.90 | 19.57 | 0
5 | B5 | 14.23 | 3.13 | 56.07 | 53.07 | 3
6 | B6 | 10.53 | 9.80 | 55.90 | 46.13 | 0
7 | B7 | 19.10 | 10.10 | 66.67 | 56.57 | 2
8 | B8 | 24.37 | 19.43 | 46.90 | 27.77 | 0
9 | B9 | 16.67 | 33.83 | 62.97 | 29.23 | 0
